From publication PMC9628839, “Structure Based Protein Engineering of Aldehyde Dehydrogenase from Azospirillum brasilense to Enhance Enzyme Activity against Unnatural 3-Hydroxypropionaldehyde” (Journal of Microbiology and Biotechnology, 2021)

Substrate: O=CCCO
Test: purified protein
Assay type: biochemical, Azospirillum brasilense
Details: 500 μM NAD, 100 mM Tris-HCl pH 8.0, 25 °C, 50 nM enzyme, 0.5-10 mM 3HPA

| Protein | Km [mM] | kcat [s⁻¹] | kcat/Km [M⁻¹ s⁻¹] |
| --- | --- | --- | --- |
| AbKGSADH (Azospirillum brasilense; P444F) (protein) ANVTYTDTQLLIDGEWVDAASGKTIDVVNPATGKPIGRVAHAGIADLDRALAAAQSGFEAWRKVPAHERAATMRKAAALVRERADAIAQLMTQEQGKPLTEARVEVLSAADIIEWFADEGRRVYGRIVPPRNLGAQQTVVKEPVGPVAAFTPWNFPVNQVVRKLSAALATGCSFLVKAPEETPASPAALLRAFVDAGVPAGVIGLVYGDPAEISSYLIPHPVIRKVTFTGSTPVGKQLASLAGLHMKRATMELGGHAPVIVAEDADVALAVKAAGGAKFRNAGQVCISPTRFLVHNSIRDEFTRALVKHAEGLKVGNGLEEGTTLGALANPRRLTAMASVIDNARKVGASIETGGERIGSEGNFFAPTVIANVPLDADVFNNEPFGPVAAIRGFDKLEEAIAEANRLPFGLAGYAFTRSFANVHLLTQRLEVGMLWINQPATFWPEMPFGGVKDSGYGSEGGPEALEPYLVTKSVTVMAV | 4.714 ± 0.547 | 19.5 ± 1.04 | 4140 |
| AbKGSADH (Azospirillum brasilense; P444S) (protein) ANVTYTDTQLLIDGEWVDAASGKTIDVVNPATGKPIGRVAHAGIADLDRALAAAQSGFEAWRKVPAHERAATMRKAAALVRERADAIAQLMTQEQGKPLTEARVEVLSAADIIEWFADEGRRVYGRIVPPRNLGAQQTVVKEPVGPVAAFTPWNFPVNQVVRKLSAALATGCSFLVKAPEETPASPAALLRAFVDAGVPAGVIGLVYGDPAEISSYLIPHPVIRKVTFTGSTPVGKQLASLAGLHMKRATMELGGHAPVIVAEDADVALAVKAAGGAKFRNAGQVCISPTRFLVHNSIRDEFTRALVKHAEGLKVGNGLEEGTTLGALANPRRLTAMASVIDNARKVGASIETGGERIGSEGNFFAPTVIANVPLDADVFNNEPFGPVAAIRGFDKLEEAIAEANRLPFGLAGYAFTRSFANVHLLTQRLEVGMLWINQPATSWPEMPFGGVKDSGYGSEGGPEALEPYLVTKSVTVMAV | 4.690 ± 2.996 | 17.3 ± 5.1 | 3700 |
| AbKGSADH (Azospirillum brasilense; I288T) (protein) ANVTYTDTQLLIDGEWVDAASGKTIDVVNPATGKPIGRVAHAGIADLDRALAAAQSGFEAWRKVPAHERAATMRKAAALVRERADAIAQLMTQEQGKPLTEARVEVLSAADIIEWFADEGRRVYGRIVPPRNLGAQQTVVKEPVGPVAAFTPWNFPVNQVVRKLSAALATGCSFLVKAPEETPASPAALLRAFVDAGVPAGVIGLVYGDPAEISSYLIPHPVIRKVTFTGSTPVGKQLASLAGLHMKRATMELGGHAPVIVAEDADVALAVKAAGGAKFRNAGQVCTSPTRFLVHNSIRDEFTRALVKHAEGLKVGNGLEEGTTLGALANPRRLTAMASVIDNARKVGASIETGGERIGSEGNFFAPTVIANVPLDADVFNNEPFGPVAAIRGFDKLEEAIAEANRLPFGLAGYAFTRSFANVHLLTQRLEVGMLWINQPATPWPEMPFGGVKDSGYGSEGGPEALEPYLVTKSVTVMAV | 4.593 ± 2.814 | 6.12 ± 1.69 | 1330 |
| AbKGSADH (Azospirillum brasilense; R281Q) (protein) ANVTYTDTQLLIDGEWVDAASGKTIDVVNPATGKPIGRVAHAGIADLDRALAAAQSGFEAWRKVPAHERAATMRKAAALVRERADAIAQLMTQEQGKPLTEARVEVLSAADIIEWFADEGRRVYGRIVPPRNLGAQQTVVKEPVGPVAAFTPWNFPVNQVVRKLSAALATGCSFLVKAPEETPASPAALLRAFVDAGVPAGVIGLVYGDPAEISSYLIPHPVIRKVTFTGSTPVGKQLASLAGLHMKRATMELGGHAPVIVAEDADVALAVKAAGGAKFQNAGQVCISPTRFLVHNSIRDEFTRALVKHAEGLKVGNGLEEGTTLGALANPRRLTAMASVIDNARKVGASIETGGERIGSEGNFFAPTVIANVPLDADVFNNEPFGPVAAIRGFDKLEEAIAEANRLPFGLAGYAFTRSFANVHLLTQRLEVGMLWINQPATPWPEMPFGGVKDSGYGSEGGPEALEPYLVTKSVTVMAV | 5.764 ± 1.462 | 31.5 ± 3.94 | 5470 |
| AbKGSADH (Azospirillum brasilense; R281Y) (protein) ANVTYTDTQLLIDGEWVDAASGKTIDVVNPATGKPIGRVAHAGIADLDRALAAAQSGFEAWRKVPAHERAATMRKAAALVRERADAIAQLMTQEQGKPLTEARVEVLSAADIIEWFADEGRRVYGRIVPPRNLGAQQTVVKEPVGPVAAFTPWNFPVNQVVRKLSAALATGCSFLVKAPEETPASPAALLRAFVDAGVPAGVIGLVYGDPAEISSYLIPHPVIRKVTFTGSTPVGKQLASLAGLHMKRATMELGGHAPVIVAEDADVALAVKAAGGAKFYNAGQVCISPTRFLVHNSIRDEFTRALVKHAEGLKVGNGLEEGTTLGALANPRRLTAMASVIDNARKVGASIETGGERIGSEGNFFAPTVIANVPLDADVFNNEPFGPVAAIRGFDKLEEAIAEANRLPFGLAGYAFTRSFANVHLLTQRLEVGMLWINQPATPWPEMPFGGVKDSGYGSEGGPEALEPYLVTKSVTVMAV | 2.338 ± 0.372 | 26.6 ± 1.56 | 11400 |
| AbKGSADH (Azospirillum brasilense; P444G) (protein) ANVTYTDTQLLIDGEWVDAASGKTIDVVNPATGKPIGRVAHAGIADLDRALAAAQSGFEAWRKVPAHERAATMRKAAALVRERADAIAQLMTQEQGKPLTEARVEVLSAADIIEWFADEGRRVYGRIVPPRNLGAQQTVVKEPVGPVAAFTPWNFPVNQVVRKLSAALATGCSFLVKAPEETPASPAALLRAFVDAGVPAGVIGLVYGDPAEISSYLIPHPVIRKVTFTGSTPVGKQLASLAGLHMKRATMELGGHAPVIVAEDADVALAVKAAGGAKFRNAGQVCISPTRFLVHNSIRDEFTRALVKHAEGLKVGNGLEEGTTLGALANPRRLTAMASVIDNARKVGASIETGGERIGSEGNFFAPTVIANVPLDADVFNNEPFGPVAAIRGFDKLEEAIAEANRLPFGLAGYAFTRSFANVHLLTQRLEVGMLWINQPATGWPEMPFGGVKDSGYGSEGGPEALEPYLVTKSVTVMAV | 3.512 ± 2.070 | 6.59 ± 1.58 | 1880 |
| AbKGSADH (Azospirillum brasilense; R281F) (protein) ANVTYTDTQLLIDGEWVDAASGKTIDVVNPATGKPIGRVAHAGIADLDRALAAAQSGFEAWRKVPAHERAATMRKAAALVRERADAIAQLMTQEQGKPLTEARVEVLSAADIIEWFADEGRRVYGRIVPPRNLGAQQTVVKEPVGPVAAFTPWNFPVNQVVRKLSAALATGCSFLVKAPEETPASPAALLRAFVDAGVPAGVIGLVYGDPAEISSYLIPHPVIRKVTFTGSTPVGKQLASLAGLHMKRATMELGGHAPVIVAEDADVALAVKAAGGAKFFNAGQVCISPTRFLVHNSIRDEFTRALVKHAEGLKVGNGLEEGTTLGALANPRRLTAMASVIDNARKVGASIETGGERIGSEGNFFAPTVIANVPLDADVFNNEPFGPVAAIRGFDKLEEAIAEANRLPFGLAGYAFTRSFANVHLLTQRLEVGMLWINQPATPWPEMPFGGVKDSGYGSEGGPEALEPYLVTKSVTVMAV | 3.808 ± 0.728 | 21.9 ± 1.8 | 5760 |
| AbKGSADH (Azospirillum brasilense) (protein) ANVTYTDTQLLIDGEWVDAASGKTIDVVNPATGKPIGRVAHAGIADLDRALAAAQSGFEAWRKVPAHERAATMRKAAALVRERADAIAQLMTQEQGKPLTEARVEVLSAADIIEWFADEGRRVYGRIVPPRNLGAQQTVVKEPVGPVAAFTPWNFPVNQVVRKLSAALATGCSFLVKAPEETPASPAALLRAFVDAGVPAGVIGLVYGDPAEISSYLIPHPVIRKVTFTGSTPVGKQLASLAGLHMKRATMELGGHAPVIVAEDADVALAVKAAGGAKFRNAGQVCISPTRFLVHNSIRDEFTRALVKHAEGLKVGNGLEEGTTLGALANPRRLTAMASVIDNARKVGASIETGGERIGSEGNFFAPTVIANVPLDADVFNNEPFGPVAAIRGFDKLEEAIAEANRLPFGLAGYAFTRSFANVHLLTQRLEVGMLWINQPATPWPEMPFGGVKDSGYGSEGGPEALEPYLVTKSVTVMAV | 4.581 ± 0.921 | 21.5 ± 1.99 | 4700 |
| AbKGSADH (Azospirillum brasilense; S109G) (protein) ANVTYTDTQLLIDGEWVDAASGKTIDVVNPATGKPIGRVAHAGIADLDRALAAAQSGFEAWRKVPAHERAATMRKAAALVRERADAIAQLMTQEQGKPLTEARVEVLGAADIIEWFADEGRRVYGRIVPPRNLGAQQTVVKEPVGPVAAFTPWNFPVNQVVRKLSAALATGCSFLVKAPEETPASPAALLRAFVDAGVPAGVIGLVYGDPAEISSYLIPHPVIRKVTFTGSTPVGKQLASLAGLHMKRATMELGGHAPVIVAEDADVALAVKAAGGAKFRNAGQVCISPTRFLVHNSIRDEFTRALVKHAEGLKVGNGLEEGTTLGALANPRRLTAMASVIDNARKVGASIETGGERIGSEGNFFAPTVIANVPLDADVFNNEPFGPVAAIRGFDKLEEAIAEANRLPFGLAGYAFTRSFANVHLLTQRLEVGMLWINQPATPWPEMPFGGVKDSGYGSEGGPEALEPYLVTKSVTVMAV | 1.646 ± 0.726 | 6 ± 0.877 | 3640 |
| AbKGSADH (Azospirillum brasilense; S109L) (protein) ANVTYTDTQLLIDGEWVDAASGKTIDVVNPATGKPIGRVAHAGIADLDRALAAAQSGFEAWRKVPAHERAATMRKAAALVRERADAIAQLMTQEQGKPLTEARVEVLLAADIIEWFADEGRRVYGRIVPPRNLGAQQTVVKEPVGPVAAFTPWNFPVNQVVRKLSAALATGCSFLVKAPEETPASPAALLRAFVDAGVPAGVIGLVYGDPAEISSYLIPHPVIRKVTFTGSTPVGKQLASLAGLHMKRATMELGGHAPVIVAEDADVALAVKAAGGAKFRNAGQVCISPTRFLVHNSIRDEFTRALVKHAEGLKVGNGLEEGTTLGALANPRRLTAMASVIDNARKVGASIETGGERIGSEGNFFAPTVIANVPLDADVFNNEPFGPVAAIRGFDKLEEAIAEANRLPFGLAGYAFTRSFANVHLLTQRLEVGMLWINQPATPWPEMPFGGVKDSGYGSEGGPEALEPYLVTKSVTVMAV | 4.156 ± 1.377 | 17 ± 2.5 | 4100 |
| AbKGSADH (Azospirillum brasilense; P444L) (protein) ANVTYTDTQLLIDGEWVDAASGKTIDVVNPATGKPIGRVAHAGIADLDRALAAAQSGFEAWRKVPAHERAATMRKAAALVRERADAIAQLMTQEQGKPLTEARVEVLSAADIIEWFADEGRRVYGRIVPPRNLGAQQTVVKEPVGPVAAFTPWNFPVNQVVRKLSAALATGCSFLVKAPEETPASPAALLRAFVDAGVPAGVIGLVYGDPAEISSYLIPHPVIRKVTFTGSTPVGKQLASLAGLHMKRATMELGGHAPVIVAEDADVALAVKAAGGAKFRNAGQVCISPTRFLVHNSIRDEFTRALVKHAEGLKVGNGLEEGTTLGALANPRRLTAMASVIDNARKVGASIETGGERIGSEGNFFAPTVIANVPLDADVFNNEPFGPVAAIRGFDKLEEAIAEANRLPFGLAGYAFTRSFANVHLLTQRLEVGMLWINQPATLWPEMPFGGVKDSGYGSEGGPEALEPYLVTKSVTVMAV | 4.204 ± 1.184 | 18.8 ± 2.36 | 4480 |
